Assay results from publication PMC11643046 (bioRxiv, 2025).

Molecular target: the molecule itself
Experiment: SDS-PAGE

Protein	stoichiometry N	binding result
Mycobacterium tuberculosis CrgA (Rv0011c), wild type, full length, with C-terminal His tag (natural protein) MMPKSKVRKKNDFTVSAVSRTPMKVKVGPSSVWFVSLFIGLMLIGLIWLMVFQLAAIGSQAPTALNWMAQLGPWNYAIAFAFMITGLLLTMRWH	2	
CrgA A78V mutant (natural protein) MMPKSKVRKKNDFTVSAVSRTPMKVKVGPSSVWFVSLFIGLMLIGLIWLMVFQLAAIGSQAPTALNWMAQLGPWNYAIVFAFMITGLLLTMRWH		binds
CrgA N74A mutant (natural protein) MMPKSKVRKKNDFTVSAVSRTPMKVKVGPSSVWFVSLFIGLMLIGLIWLMVFQLAAIGSQAPTALNWMAQLGPWAYAIAFAFMITGLLLTMRWH		binds
CrgA G39V mutant (natural protein) MMPKSKVRKKNDFTVSAVSRTPMKVKVGPSSVWFVSLFIVLMLIGLIWLMVFQLAAIGSQAPTALNWMAQLGPWNYAIAFAFMITGLLLTMRWH		binds
CrgA G44V mutant (natural protein) MMPKSKVRKKNDFTVSAVSRTPMKVKVGPSSVWFVSLFIGLMLIVLIWLMVFQLAAIGSQAPTALNWMAQLGPWNYAIAFAFMITGLLLTMRWH		binds
